# Reference: US5985822A, “Inhibition of glial cell proliferation with N-CAM homophilic peptides” (The Scripps Research Institute, priority 1995, dated 1999)
# B1: N-CAM: neural cell adhesion molecule purified from early postnatal rat brains by affinity chromatography, mainly polysialylated embryonic form (protein, UniProt P13596 20-858, looked up)
# Neural cell adhesion molecule …: LQVDIVPSQGEISVGESKFFLCQVAGDAKDKDISWFSPNGEKLSPNQQRISVVWNDDDSSTLTIYNANIDDAGIYKCVVTAEDGTQSEATVNVKIFQKLMFKNAPTPQEFKEGEDAVIVCDVVSSLPPTIIWKHKGRDVILKKDVRFIVLSNNYLQIRGIKKTDEGTYRCEGRILARGEINFKDIQVIVNVPPTVQARQSIVNATANLGQSVTLVCDADGFPEPTMSWTKDGEPIENEEEDDEKHIFSDDSSELTIRNVDKNDEAEYVCIAENKAGEQDASIHLKVFAKPKITYVENQTAMELEEQVTLTCEASGDPIPSITWRTSTRNISSEEKASWTRPEKQETLDGHMVVRSHARVSSLTLKSIQYTDAGEYICTASNTIGQDSQSMYLEVQYAPKLQGPVAVYTWEGNQVNITCEVFAYPSATISWFRDGQLLPSSNYSNIKIYNTPSASYLEVTPDSENDFGNYNCTAVNRIGQESLEFILVQADTPSSPSIDRVEPYSSTAQVQFDEPEATGGVPILKYKAEWKSLGEEAWHSKWYDAKEANMEGIVTIMGLKPETRYAVRLAALNGKGLGEISAATEFKTQPVREPSAPKLEGQMGEDGNSIKVNLIKQDDGGSPIRHYLVKYRALASEWKPEIRLPSGSDHVMLKSLDWNAEYEVYVVAENQQGKSKAAHFVFRTSAQPTAIPANGSPTAGLSTGAIVGILIVIFVLLLVVMDITCYFLNKCGLLMCIAVNLCGKAGPGAKGKDMEEGKAAFSKDESKEPIVEVRTEEERTPNHDGGKHTEPNETTPLTEPEKGPVETKSEPQESEAKPAPTEVKTVPNEATQTKENESKA
# modifications: polysialylated embryonic form
# Assays:
# [1] = test system: dividing astrocytes in cerebral cortex, hippocampus or striatum; assay: In vivo labeling index of dividing astrocytes (BrdU with GFAP or S100) after stab lesion with infusion; set-up: species or system rat; settings: for Labeling Index (Experimental): N-CAM 250 μg/ml, 3rd Ig domain 5 mg/ml, N-CAM peptide 1 mg/ml, 3 μl infused, n=3
# Description: Samples were injected into the brains of rats (Wistar Albino, Male, 200-250 g, Charles River, anesthetized with xylazine (12 mg/kg) and ketamine (90 mg/kg) through a 26 gauge needle. The needle point was placed at the stereotactic coordinates of either the hippocampus, cerebral cortex or striatum (Table 2). Bilateral injections of 3-4 μl were made using an Hamilton syringe. Each animal received an infusion of either the purified rat N-CAM (250 μg/ml), the third Ig domain of chicken N-CAM (5 mg/ml), or the rat N-CAM peptide KHIFSDDSSE (SEQ ID NO 2) (1 mg/ml) in PBS into one hemisphere; the other hemisphere was infused with the random peptide (SFSISDEDHK (SEQ ID NO 9), 1 mg/ml in PBS) as a control. The experimental and control sides varied between animals and choice of side had no significant effect on the results. Three μl of each protein or peptide was infused at a rate of 0.2 μl per minute after which the needle was left in place for 5 minutes and then removed. In one experiment, a group of animals received basic fibroblast growth factor (bFGF, 450 ng) in the solutions which contained either the random peptide or the purified N-CAM.
# The samples were either purified N-CAM in phosphate buffered saline (PBS), N-CAM peptide KHIFSDDSSE (SEQ. ID. NO. 2) (1 mg/ml or 10 mg/ml) in PBS, or the corresponding random peptide SFSISDEDHK (SEQ ID NO 9) (1 mg/ml) (see Example 3 above). The injection rate was about 0.2 μl/min; the needle was left in place for 5 minute after the injection. Each animal received either the purified N-CAM or the N-CAM peptide injected into one side of the brain and the corresponding structure on the other side was injected with the random peptide as a control.
# Three animals were examined for each treatment and brain region described. Animals were maintained for a postinjection survival time of about 70-72 hours. During that time they received five injections of bromodeoxyuridine (Brdu) dissolved in 0.007 N NaOH (120 mg/kg, intraperitoneal). Two of the three animals that had been injected in the hippocampus received Brdu approximately 18, 28, 42, 52, and 70 hours after the stereotactic surgery. All of the animals that had been injected in the cerebral cortex or the striatum and one animal injected in the hippocampus received Brdu approximately 2, 18, 28, 42, and 52 hours after the stereotactic surgery.
# Animals were perfused under anesthesia with about 30 ml of ice-cold PBS followed by about 400 ml of ice-cold […] in PBS. The brains were then removed and postfixed for 2-16 hours in 4% paraformaldehyde in PBS then placed in succeeding solutions of ascending concentrations of sucrose (12%, 18%, and 24%). The brains were then sectioned on a cryostat at a thickness of 10 μm.
# Non-specific binding on the sections was blocked by incubation in 8% fetal bovine serum (FBS) in PBS. Sections were then incubated in polyclonal antibody to glial fibrillary acidic protein (GFAP; 1:100 dilution, Dako) in 0.2% Triton X-100, 8% FBS/PBS for 24 - 48 hr at 4° C. The sections were processed using a biotinylated secondary antibody and the Vectastain ABC kit (Vector), and stained with a diaminobenzidine peroxidase substrate kit from Vector or Pierce. The sections were then incubated for 6 minutes in a solution of Proteinase K (Dako), rinsed and incubated in 2 N HCL for 20 minutes at 37° C. The sections were rinsed and blocked in 8% FBS/PBS and incubated in a monoclonal antibody to Brdu (1:40 dilution, Dako), 0.01% Triton X-100, 8% fetal bovine serum/PBS for 24-48 hr at 4° C. The sections were processed using a biotinlyated secondary antibody and the Vectastain ABC kit (Vector), and stained with a VIP peroxidase substrate kit from Vector giving the Brdu positive cells a red color. The sections were then rinsed in PBS and coverslipped in glycerol/PBS.
# GFAP positive cells and cells positive for both GFAP and BRDU were counted under a Zeiss Axiophot light microscope. […]
# [2] = test system: tyrosine phosphorylated proteins (60-70 kDa and approximately 120 kDa); assay: Anti-phosphotyrosine immunoprecipitation and immunoblot of bFGF-stimulated astrocytes; format: cell-based, rat; settings: N-CAM 2 μg/ml 30 minutes, then bFGF 100 ng/ml 10 minutes
# Description: Astrocyte cells were seeded at a density of 7×10^4 /cm^2 in a 100 mm tissue culture dish in Dulbecco's modified essential medium (DMEM) containing 10% fetal calf serum and gentamycin (5 μg/ml) at 37 degrees C with 7% CO2. After overnight culture, the medium was replaced with serum-free medium and the cells are cultured for an additional 48 hr. The serum-starved cells were treated for 30 minutes in the presence of N-CAM (2 μg/ml) or buffer alone and then stimulated for 10 minutes with bFGF (100 ng/ml) to stimulate tyrosine phosphorylation through the FGF receptor. […]
# Immunoblotting was performed by incubation with the indicated antibodies followed by ^125 I-labeled protein A; the resulting autoradiogram was exposed for 14 hr on XAR film at -70° C. or scanned on a Molecular Dynamics PhosphorImager (Sunnyvale, Calif.). The amount of reactivity with antibodies to phosphotyrosine relative to the amount of reactivity with antibodies to each specific protein can be calculated from imaging these gel blots, in extracts from N-CAM treated cells vs. non treated cells. This determines whether the FGF receptor or other proteins analyzed in this same paradigm are changed in their levels of tyrosine phosphorylation upon N-CAM treatment.
molecule,measurement,setting,value
B1,"Percent Difference of labeling index, experimental vs control",[1]; cerebral cortex,-52.1 ± 4.5%
same,Labeling Index (Experimental),[1]; cerebral cortex,10.2 ± 1.5%
same,effect on mitogenic effects of bFGF in vivo,"[1]; cortical lesion, bFGF 450 ng co-infused",able to oppose the mitogenic effects of bFGF
same,"Percent Difference of labeling index, experimental vs control",[1]; hippocampus,-25.2 ± 1.6%
same,Labeling Index (Experimental),[1]; hippocampus,14.6 ± 2.3%
same,inhibition of astrocyte proliferation,[1]; infusion into cerebral cortex at 100 μg/ml,0-10%
same,"Percent Difference of labeling index, experimental vs control",[1]; striatum,-20.8 ± 2.1%
same,Labeling Index (Experimental),[1]; striatum,20.7 ± 0.7%
same,tyrosine phosphorylation of a 60-70 kDa protein and a protein at approximately 120 kDa,[2],diminished tyrosine phosphorylation
